Values of other authors, collected in publication PMC8256087.
pKd: −log10 of the molar value.

Target: FtsY (Escherichia coli) (UniProt P10121)
Sequence (P10121 2-497): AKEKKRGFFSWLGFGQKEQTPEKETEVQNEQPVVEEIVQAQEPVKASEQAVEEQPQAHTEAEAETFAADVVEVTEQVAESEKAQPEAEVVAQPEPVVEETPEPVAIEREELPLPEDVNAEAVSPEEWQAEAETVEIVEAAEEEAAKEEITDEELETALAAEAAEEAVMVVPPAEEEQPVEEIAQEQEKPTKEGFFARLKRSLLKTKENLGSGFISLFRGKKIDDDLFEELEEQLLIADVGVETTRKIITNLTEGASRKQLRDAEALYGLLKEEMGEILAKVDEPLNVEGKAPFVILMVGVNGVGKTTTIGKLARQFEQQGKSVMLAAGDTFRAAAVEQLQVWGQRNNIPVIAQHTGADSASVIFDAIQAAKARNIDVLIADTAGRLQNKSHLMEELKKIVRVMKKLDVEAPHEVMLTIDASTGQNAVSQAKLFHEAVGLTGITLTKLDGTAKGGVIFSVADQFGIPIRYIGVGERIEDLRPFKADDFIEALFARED

SecYEG translocon, sequence (P0AGA2 whole entry): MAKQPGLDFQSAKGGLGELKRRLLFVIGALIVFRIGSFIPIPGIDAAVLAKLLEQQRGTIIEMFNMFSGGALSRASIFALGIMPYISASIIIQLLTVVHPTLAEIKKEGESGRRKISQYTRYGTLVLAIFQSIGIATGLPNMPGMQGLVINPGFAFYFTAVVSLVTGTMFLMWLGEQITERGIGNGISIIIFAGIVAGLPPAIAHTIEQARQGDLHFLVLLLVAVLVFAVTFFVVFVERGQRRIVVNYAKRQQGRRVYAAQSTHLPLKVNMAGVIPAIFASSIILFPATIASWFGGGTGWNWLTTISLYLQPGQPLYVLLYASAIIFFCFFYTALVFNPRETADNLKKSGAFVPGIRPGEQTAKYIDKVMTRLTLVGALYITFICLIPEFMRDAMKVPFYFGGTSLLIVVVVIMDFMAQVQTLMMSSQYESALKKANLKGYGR
SecYEG translocon, sequence (P0AG96 whole entry, further chain): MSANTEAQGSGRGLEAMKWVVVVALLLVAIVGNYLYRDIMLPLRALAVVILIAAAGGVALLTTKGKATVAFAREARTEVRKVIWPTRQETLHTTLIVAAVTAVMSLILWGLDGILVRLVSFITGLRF
SecYEG translocon, sequence (P0AG99 whole entry, further chain): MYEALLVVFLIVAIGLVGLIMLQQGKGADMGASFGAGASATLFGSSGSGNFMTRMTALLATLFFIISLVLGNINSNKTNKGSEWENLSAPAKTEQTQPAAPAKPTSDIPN

- pKd: 6.70
Substance: SecYEG translocon (from UniProt P0AGA2)
